Target: GST-tagged MERS-CoV papain-like protease (PLpro) (MERS-CoV) (UniProt K9N7C7)
Experiment: BLI

Substance	Kd
ubiquitin variant A46F-K48E-G75R (from UniProt P0CG48 1-76) (designed binder)	11400 nM
ubiquitin variant A46F-K48E-E64Y (UbV3) (from UniProt P0CG48 1-76) (designed binder)	2.77 nM
ubiquitin variant A46F-K48E (UbV2) (from UniProt P0CG48 1-76) (designed binder)	220 nM
ubiquitin variant A46F-K48E-E64Y-R74N-G75S (UbV5) (from UniProt P0CG48 1-76) (designed binder)	1.48 nM

From publication PMC10274944
